Results on seven molecules are retold here after patent publication US20110300156A1 (Genmab, published 2011).

Residue numbers refer to the chain shown, from its start.

The chains are these.
T1: murine tissue factor (TF) on transfected HEK293F cells (murine, UniProt P20352 29-294)
T1 construct: whole, on cells; also called murine TF; TFmm
T1 sequence (looked up): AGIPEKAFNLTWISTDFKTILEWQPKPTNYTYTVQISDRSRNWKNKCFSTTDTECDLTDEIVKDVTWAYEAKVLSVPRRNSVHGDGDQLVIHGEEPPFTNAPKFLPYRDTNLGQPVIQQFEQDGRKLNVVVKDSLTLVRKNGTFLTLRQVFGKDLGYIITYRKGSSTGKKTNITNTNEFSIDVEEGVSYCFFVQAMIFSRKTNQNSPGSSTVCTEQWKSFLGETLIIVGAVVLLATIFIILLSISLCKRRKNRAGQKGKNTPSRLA

B1: HuMab-TF-109 Fab fragment (Fab, V domains shown)
VH: QVQLVESGGGVVQPGRSLRLSCPASGFTFSIYAMHWVRQAPGKGLEWVAVVSNDGYNKYYADSVKGRFTISRDNSKDTLYLQMNSLRAEDTAVYYCARDGQLGRGYFDYWGQGTLVTVSS
VL: EIVLTQSPATLSLSPGERAILSCRASQSVSSYLAWYQQKPGQAPRLLIYDASNRATGIPARFSGSGSGTDFTLTISSLEPEDFAVYYCQQRSNWPLTFGGGTKVEIK
notes: Fab fragment of the HuMab; VH and VL as for the parent antibody
B2: HuMab-TF-111 Fab fragment (Fab, V domains shown)
VH: QVQLVESGGGVVQPGRSLRLSCAGSGFTFNRYAMYWVRQAPGKGLDWVAVISNDGINKYYADSVKGRFTISRDNSKNTLYLQMNSLRAEDTAVYYCARDHTMVRGAFDYWGQGTLVTVSS
VL: B1 VL with I20T
notes: as for B1
B3: HuMab-TF-044 Fab fragment (Fab, V domains shown)
VH: QVQLVESGGGVVQPGRSLRLSCAASGFTFSDYAMHWVRQAPGKGLEWVAVIPYDGDNKYYADSVKGRFTISRDNSKNTLYLQMNSLRAEDTAVYYCAREDWGLEVDYWGQGALVTVSS
VL: AIQLTQSPSSLSASVGDRVTITCRASQGINSALAWYQQKPGKAPKLLIYDASSLESGVPSRFSGSGSGTDFTLTISSLQPEDFATYYCQQFNSYPLTFGGGTKVEIK
notes: as for B1
B4: HuMab-TF-011 Fab fragment (Fab, V domains shown)
VH: EVQLLESGGGLVQPGGSLRLSCAASGFTFSNYAMSWVRQAPGKGLEWVSSISGSGDYTYYTDSVKGRFTISRDNSKNTLYLQMNSLRAEDTAVYYCARSPWGYYLDSWGQGTLVTVSS
VL: DIQMTQSPPSLSASAGDRVTITCRASQGISSRLAWYQQKPEKAPKSLIYAASSLQSGVPSRFSGSGSGTDFTLTISSLQPEDFATYYCQQYNSYPYTFGQGTKLEIK
notes: Fab fragment of the HuMab; VH and VL as for the parent antibody; also called -011 Fab fragments
B5: HuMab-TF-098 Fab fragment (Fab, V domains shown)
VH: QVQLVQSGAEVRKPGSSVKVSCKASGGSFNNYPIFWVRQAPGQGFEWMGRIIPILGITAYAQKFQGRVTITADKSTSTAYMELNSLRSEDTAVYYCAGGDDLDAFDIWGQGTMVSVSS
VL: B4 VL with P9S, A15V, R32W
notes: as for B1
B6: HuMab-TF-013 Fab fragment (Fab, V domains shown)
VH: EVQLVQSGAEVKKPGESLKISCKGSGYSFTSYWIGWVRQMPGKGLEWMGIIYPGDSDTRYSPSFQGQVTISADKSISTAYLQWSSLKASDTAMYYCARIHRGAGYSSSWPGAFDIWGQGTMVTVSS
VL: B4 VL with P9S, A15V, S31R, R32W, N92D, Y94D, Y96I, K103R
notes: as for B1
B7: anti-TF HuMab 017-D12 (antibody, V domains shown)
VH: EVQLLESGGGLVQPGGSLRLSCAASGFTFSSYAMSWVRQAPGKGLEWVSAISGSGDSTNYADSVKGRFTISRDNSKNTLYLQMNSLRAEDTAVYYCAKDGYFLLWYFDLWGRGTLVTVSS
VL: not shown
notes: Human monoclonal antibody from HuMab mice

The first test deals with T2, TFECDHis (extracellular domain of tissue factor, amino acid 1-251, with C-terminal His tag) (human, UniProt P13726 33-251).
T2 construct: range 1-251; The stated range 1-251 starts at residue 1 of NP-001984; also called extracellular domain of TF
In words: ELISA, Fab fragment on coated extracellular domain of TF. As for the experimental part:
The specificity of the obtained anti-TF HuMabs was evaluated by ELISA. ELISA plates (Microlon; Greiner Bio-One) were coated overnight at +4° C. with 0.5 μg/mL of TFECDHis in PBS, pH 7.4. Coated ELISA plates were emptied and blocked for one hour at room temperature with 2% (v/v) chicken serum (Gibco, Paisley, Scotland) in PBS and washed with PBS containing 0.05% Tween 20 (PBST). Subsequently, HuMabs, serially diluted in PBSTC (PBS supplemented with 2% (v/v) chicken serum and 0.05% (v/v) Tween-20), were incubated for 1 hr at RT under shaking conditions (300 rpm). Bound HuMabs were detected using HRP-conjugated goat-anti-human IgG antibodies (Jackson ImmunoResearch) diluted 1:5,000 in PBSTC, which were incubated for 1 hr at RT under shaking conditions (300 rpm). […] HuMab-KLH (a human monoclonal antibody against KLH (keyhole limpet haemocyanin)), was used as a negative control. Mouse anti-human TF (ERL) was used as positive control (HRP labeled anti-mouse IgG as conjugate). Binding curves were analyzed using non-linear regression (sigmoidal dose-response with variable slope) using GraphPad Prism V4.03 software.
(§1) Binding of Fab fragments of anti-TF HuMabs to TF was measured by ELISA (coated extracellular domain of TF) and by FACS (TF on BxPC3 cells). ELISA was performed essentially as described supra. Bound Fab fragments were detected using HRP-conjugated donkey-anti human H+L. FACS analysis was performed essentially as described supra. FITC-conjugated goat anti-human IgG (H+L) (Jackson) was used to detect bound lead candidates. Fluorescence was measured on a FACSCantoII. Binding curves were analyzed as described supra, using GraphPad Prism 5 software.
(In general: ELISA stands for enzyme-linked immunosorbent assay.)
B1 gave an EC50 of 0.02 µg/mL. Same read-out and setting: for B2 the value was 3.14 µg/mL; for B3, 0.59 µg/mL.

In the case of B4, a half-maximal effect (EC50) was put at 0.04 µg/mL. The same measure, in the same setting: in the case of B5 it was 1.98 µg/mL; in that of B6, 0.03 µg/mL.

The target in another test is T1, murine tissue factor (TF) on …. Put plainly: FACS on transfected HEK293F cells, 30 µg/mL antibody [Figure 18; no figure label on the sheet]. As for the experimental part: (§2) Cells were resuspended in PBS (2×10⁶ cells/ml), put in 96-well V-bottom plates (50 μl/well). 50 μl of serially diluted HuMab in FACS buffer (PBS supplemented with 0.1% BSA and 0.02% Na-azide) was added to the cells and incubated for 30 minutes on ice. After washing three times with FACS buffer, 50 μl of phycoerythrin (PE)-conjugated goat anti-human IgGFc (Jackson ImmunoResearch), diluted 1:100 in FACS buffer, was added. After 30 minutes on ice (in the dark), cells were washed three times, and specific binding of the HuMabs was detected by flow cytometry on a FACSCalibur (BD Biosciences). HuMab-KLH was used as a negative control. Mouse anti-TF followed by PE-conjugated anti-mouse IgGFc was used as positive control. Binding curves were analyzed using non-linear regression (sigmoidal dose-response with variable slope) using GraphPad Prism V4.03 software (GraphPad Software, San Diego, Calif., USA).
To determine domains important for binding of anti-TF HuMabs to human TF, DNA shuffling was performed between human and murine TF. Shuffle constructs were prepared from DNA encoding human TF, by replacing human domains with murine domains and from DNA encoding murine TF by replacing murine domains with human domains.
With B7, the binding result is recorded as “no binding (tested: 30 µg/mL)”.

The next test concerns the target T3, human tissue factor (TF), membrane-bound on cells (human, UniProt P13726 33-295).
T3 construct: whole, on cells; also called cellular TF
In words: FACS, Fab fragment on BxPC3 cells. Here is the method: as §2, §1
(In general: In flow cytometry, cells or beads pass a laser one at a time.)
As for B1, a half-maximal effect (EC50) was put at 0.143 µg/mL. On the same count and under the same terms, for B3 the value was 8.04 µg/mL; for B4, 0.132 µg/mL; for B6, 0.301 µg/mL.

One may read the EC50 as the concentration at which the effect is half-maximal. Low values mean higher potency in that assay, high ones lower potency in that assay.
